Data from paper PMC4449314.
Like-named read-outs stand apart in the source and are kept apart here. Blank lines part the entries; values can stand above or below the substance they belong to.

Experiments:
Assay in all cases: non-reducing SDS-PAGE of disulfide-linked products after anti-HA IP
[1] = target: HA-tagged human DAP12 aspartic acid-to-glutamic acid mutant (human)
[2] = target: HA-tagged human DAP12 aspartic acid-to-alanine mutant (human)
[3] = target: HA-tagged human DAP12 aspartic acid-to-glutamine mutant (human)
[4] = target: HA-tagged human DAP12 threonine-to-alanine mutant (human)
[5] = target: HA-tagged human DAP12 aspartic acid-to-asparagine mutant (human)
[6] = target: HA-tagged human DAP12 aspartic acid-to-asparagine mutant (human); remark: listed apart in the source

Substance: HA-tagged human DAP12 threonine-to-alanine mutant (natural protein)
fold decrease of trimer compared to WT [4]: 5 fold | fold increase of tetramer compared to WT [4]: 2 fold | stoichiometry N [4]: 2

Substance: HA-tagged human DAP12 aspartic acid-to-asparagine mutant (natural protein)
stoichiometry N [5]: 2 | stoichiometry N [6]: 3

Second part, the substance after the results:

stoichiometry N [1]: 2
Substance: HA-tagged human DAP12 aspartic acid-to-glutamic acid mutant (natural protein)

fold reduction of tetramer compared to WT [2]: 2 fold | fold reduction of trimer compared to WT [2]: 10 fold | stoichiometry N [2]: 2
Substance: HA-tagged human DAP12 aspartic acid-to-alanine mutant (natural protein)

stoichiometry N [3]: 2
Substance: HA-tagged human DAP12 aspartic acid-to-glutamine mutant (natural protein)
